According to publication PMC9010756:

Biological target: GST-CGN(1–70) (GST-tagged cCGN, 1–70 amino acids) (canis (dog))
Experiment: pull-down

GST-CGN(1–70) (GST-tagged cCGN, 1–70 amino acids) (canis (dog)), sequence (A7YH32 1-70): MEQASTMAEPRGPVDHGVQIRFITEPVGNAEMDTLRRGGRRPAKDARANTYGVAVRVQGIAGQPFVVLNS

How did the fold stronger binding than larger fragments turn out when “GFP-hZO-1-Cter (1619–1748) (from UniProt Q07157 1619-1748) (domain or fragment)” was run?
Its fold stronger binding than larger fragments is over 4 fold.
